Laboratory results taken from patent US20180291082A1.
Like-named read-outs stand apart in the source and are kept apart here.

Columns and labels:
Experiment in all cases: UV-ligand exchange, anti-b2m ELISA; exchange yield grade (+ >10%, ++ >20%, +++ >50, ++++ >75%)
HLA-B*44:02 (human) = biological target: HLA-B*44:02 (human)
HLA-A*03:01 (human) = biological target: HLA-A*03:01 (human)
HLA-A*01:01 (human) = conditions: remark: other sources report otherwise

With QQATPGPAY the peptide exchange yield (HLA-B*44:02 (human); remark: other sources report otherwise) was 20 to 50%.

In the case of AEGGKVPIKW (modifications not checked), the peptide exchange yield (HLA-B*44:02 (human)) is reported as 50 to 75%.

Work on KITDFGLAK (modifications not checked) yielded a peptide exchange yield (HLA-A*03:01 (human)) of 20 to 50%.

Binder ITEKNSGLY has a peptide exchange yield (HLA-A*01:01 (human)) of 50 to 75%.
